Like-named read-outs stand apart in the source and are kept apart here. Numbered stars: 1 amine (or outer) side, 2 acyl side, 3 side chain; on linkers, the order of the positions; unused ones are H or OH. Square brackets hold non-standard residues; d marks the D form. Peptide text beside a SMILES is read from it. * marks the point of attachment. Exatecan = CC[C@@]1(O)C(=O)OCc2c1cc1n(c2=O)Cc2c-1nc1cc(F)c(C)c3c1c2[C@@H](N*)CC3; βAla(2S-maleimido) = O=C1C=CC(=O)N1[C@@H](CN[*:1])C(=O)[*:2]; Dolaproine = CO[C@@H]([C@@H]1CCCN1)[C@@H](C)C(=O)O; Propanoyl(3-maleimido) = O=C1C=CC(=O)N1CCC(=O)*; X5 = C[C@@H](N[*:1])[C@@H](OC(=O)[*:2])c1ccccc1; NH(CH2CH2O)8Me = COCCOCCOCCOCCOCCOCCOCCOCCN*; Dil = CC[C@H](C)[C@H](NC)[C@@H](CC(=O)O)OC; PABC = O=C(OCc1ccc(N[*:1])cc1)[*:2]; X1 = C[C@@H](N*)[C@@H](O)c1ccccc1; hSer(lactone) = O=C1OCC[C@@H]1N*; Cit = NC(=O)NCCC[C@H](N)C(=O)O; PEG4 = NCCOCCOCCOCCOCCC(=O)O; NMeV = CN[C@H](C(=O)O)C(C)C; X2 = O=C1CC[C@@H](C(=O)*)O1; Sar = CNCC(=O)O
Assays:
human liver lysosome = assay: Metabolism test using human liver lysosomal fraction; type: in vitro ADME; conditions: 37° C., 24 hours, released drug, LC-MS/MS
Method: To a reaction composition solution (X10 Catabolic Buffer (manufactured by SEKISUI-Xenotech, LLC., K5200))(60 μL) in which human liver lysosome (manufactured by SEKISUI-Xenotech, LLC., Cat No. H610.L 2.5 mg/mL)(corresponding to 0.125 mg of protein) was suspended and distilled water (manufactured by FUJIFILM Wako Pure Chemical Corporation, for HPLC)(10 μL) was added 1.2 μM test compound (antibody-drug conjugate produced in ADC Production examples)(25 μL) dissolved in PBS to prepare a reaction solution. After the reaction solution was incubated at 37° C. for 24 hours, “an antitumor drug molecule or an analog thereof, or a derivative thereof” released from the antibody-drug conjugate into the reaction solution was quantified by LC-MS/MS (high performance liquid chromatography/mass spectrometer system) under the following conditions. LC-MS/MS analysis conditions
(§1) LC: LC20 or LC30 HPLC system manufactured by Shimadzu Corporation
(§2) Column: Phenomenex Kinetex C18 (50×2.1 mm, 2.6 μm)
(§3) Column temperature: 40° C.
(§4) Mobile phase A: 0.1% aqueous solution of formic acid, Mobile phase B: 0.1% solution of formic acid in a mixture of 50% acetonitrile/methanol
(§5) Mode: Positive or Negative
(§6) The release rate (%) of drug was calculated by the following equation.

human liver Cathepsin B = target: T1, human liver Cathepsin B (Homo sapiens, UniProt P07858); assay: Metabolism test using human liver Cathepsin B; type: in vitro ADME; conditions: 37° C., 24 hours, released drug, LC-MS/MS
T1 construct: human liver Cathepsin B (manufactured by Sigma-Aldrich Co. LLC, Cat No. C8571 25 μg/vial); purchased Sigma-Aldrich Co. LLC C8571; host or cells: human liver
Method: To human liver Cathepsin B (manufactured by Sigma-Aldrich Co. LLC, Cat No. C8571 25 μg/vial)(corresponding to 400 Unit/mL)(5 μL), X10 Catabolic Buffer (manufactured by SEKISUI-Xenotech, LLC., K5200)(10 μL), 2.5 mM Bovine Serum Albumin (manufactured by FUJIFILM Wako Pure Chemical Corporation, Cat No. 012-15093)(5 μL), and distilled water (manufactured by FUJIFILM Wako Pure Chemical Corporation, for HPLC)(55 μL) was added 1.2 μM test compound (antibody-drug conjugate prepared in ADC Production examples)(25 μL) dissolved in PBS to prepare a reaction solution. After the reaction solution was incubated at 37° C. for 24 hours, “an antitumor drug molecule or an analog thereof, or a derivative thereof” released from the antibody-drug conjugate into the reaction solution was quantified by LC-MS/MS (high performance liquid chromatography/mass spectrometer system) under the following conditions. LC-MS/MS analysis conditions
as §1, §2, §3, §4, §5, §6

porcine tubulin = target: T2, porcine tubulin (Sus scrofa, UniProt P02550+P02554); assay: Tubulin polymerization inhibition test; type: biochemical
T2 construct: purchased Cytoskeleton, Inc. BK011P
Method: For measuring the tubulin polymerization inhibitory action, Tubulin Polymerization Assay Kit (manufactured by Cytoskeleton, Inc., BK011P) was used. A PIPES buffer containing porcine tubulin, GTP, MgCl2, EGTA, Glycerol, and a fluorescent reporter was prepared under ice-cooling as a reaction solution. The reaction solution was ice-cooled until it was used. A test compound solution was prepared by an aqueous solution containing 1.5% DMSO, and added to a 96 well plate (manufactured by Corning Inc., 3686) at 5 μL/well. The reaction solution was added thereto at 50 μL/well, the plate was placed in a microplate reader (FlexStation 3, manufactured by Molecular Device, LLC) in which the internal temperature was set to 37° C. in advance, and the fluorescence intensity measurement (excitation wavelength: 360 nm, detection wavelength: 420 nm) of each well was started. The fluorescence intensity was measured once every minute, and the measurement was continued for 60 minutes.
The tubulin polymerization inhibition rate (%) was calculated by the following equation.
[formula] • a: average amount of fluorescence intensity increase in vehicle-treated well (n=2) • b: average amount of fluorescence intensity increase in test compound-treated well (n=2)
Amount of fluorescence intensity increase: (average fluorescence intensity after 51 to 60 minutes from measurement start)−(average fluorescence intensity after 1 to 6 minutes from measurement start)

[1] = porcine tubulin, 37° C., fluorescence over 60 minutes, read-out: IC50 value (tubulin polymerization inhibition)

T2 sequence (P02550 whole entry): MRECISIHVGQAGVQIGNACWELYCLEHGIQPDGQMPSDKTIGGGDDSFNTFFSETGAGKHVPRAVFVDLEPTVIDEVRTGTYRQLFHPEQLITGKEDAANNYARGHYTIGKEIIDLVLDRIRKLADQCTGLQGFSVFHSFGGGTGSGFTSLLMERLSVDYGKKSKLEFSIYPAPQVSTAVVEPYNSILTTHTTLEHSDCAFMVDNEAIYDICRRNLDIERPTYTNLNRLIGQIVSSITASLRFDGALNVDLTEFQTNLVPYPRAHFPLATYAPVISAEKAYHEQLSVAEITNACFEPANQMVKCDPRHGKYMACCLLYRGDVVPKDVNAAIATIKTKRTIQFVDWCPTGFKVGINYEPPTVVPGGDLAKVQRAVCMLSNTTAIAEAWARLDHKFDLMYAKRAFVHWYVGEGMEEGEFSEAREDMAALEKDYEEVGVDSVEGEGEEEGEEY
T2 sequence (P02554 whole entry): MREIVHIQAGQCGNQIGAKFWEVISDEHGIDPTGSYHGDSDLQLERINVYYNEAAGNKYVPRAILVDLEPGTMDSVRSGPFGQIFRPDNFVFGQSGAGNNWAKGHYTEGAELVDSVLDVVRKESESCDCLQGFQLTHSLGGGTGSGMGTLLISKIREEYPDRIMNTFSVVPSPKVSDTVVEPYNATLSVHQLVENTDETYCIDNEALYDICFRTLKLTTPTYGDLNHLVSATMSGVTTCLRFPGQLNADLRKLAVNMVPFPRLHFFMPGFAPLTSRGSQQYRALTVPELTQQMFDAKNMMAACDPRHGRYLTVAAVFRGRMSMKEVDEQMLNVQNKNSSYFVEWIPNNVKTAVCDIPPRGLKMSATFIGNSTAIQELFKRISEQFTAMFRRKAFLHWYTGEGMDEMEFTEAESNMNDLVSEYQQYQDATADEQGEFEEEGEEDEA

| Compound | Release rate (%) of drug from ADC (human liver lysosome) [%] | Release rate (%) of drug from ADC (human liver Cathepsin B) [%] | IC50 (porcine tubulin; [1]) [µM] | IC50 (porcine tubulin) [µM] |
| --- | --- | --- | --- | --- |
| CC[C@@]1(O)C(=O)OCc2c1cc1n(c2=O)Cc2c-1nc1cc(F)c(C)c3c1c2[C@@H](NC(=O)CN(C)C(=O)OCc1ccc(NC(=O)[C@H](CCCNC(N)=O)NC(=O)[C@@H](NC(=O)[C@H](CC(=O)N[C@H]2CCOC2=O)NC(=O)CCOCCOCCOCCOCCNC(=O)CCN2C(=O)C=CC2=O)C(C)C)cc1)CC3 [Example 4] ({Propanoyl(3-maleimido)-PEG4}-D(hSer(lactone))V[Cit][PABC][Sar]-Exatecan) | 76 | 97 |  |  |
| CC[C@H](C)[C@@H]([C@@H](CC(=O)N1CCC[C@H]1[C@H](OC)[C@@H](C)C(=O)N[C@H](C)[C@@H](O)c1ccccc1)OC)N(C)C(=O)[C@@H](NC(=O)[C@H](C(C)C)N(C)C(=O)OCc1ccc(NC(=O)[C@H](CCCNC(N)=O)NC(=O)[C@@H](NC(=O)[C@H](CC(=O)N[C@H]2CCOC2=O)NC(=O)CCOCCOCCOCCOCCNC(=O)[C@H](CNC(=O)[C@@H]2CCC(=O)O2)N2C(=O)C=CC2=O)C(C)C)cc1)C(C)C [Example 7] (X2-[βAla(2S-maleimido)][PEG4]D(hSer(lactone))V[Cit][PABC][NMeV]V[Dil][Dolaproine]-X1) | 86 | 65 |  |  |
| CCN(CC(=O)N[C@H]1CCc2c(C)c(F)cc3nc4c(c1c23)Cn1c-4cc2c(c1=O)COC(=O)[C@]2(O)CC)C(=O)OCc1ccc(NC(=O)[C@H](CCCNC(N)=O)NC(=O)[C@@H](NC(=O)[C@H](CC(=O)N[C@H]2CCOC2=O)NC(=O)CCOCCOCCOCCOCCNC(=O)[C@H](CNC(=O)CCP(=O)(O)O)N2C(=O)C=CC2=O)C(C)C)cc1 [Example 9] | 98 | 40 |  |  |
| CC[C@@]1(OC(=O)OCc2ccc(NC(=O)[C@H](CCCNC(N)=O)NC(=O)[C@@H](NC(=O)[C@H](CC(=O)N[C@H]3CCOC3=O)NC(=O)CCOCCOCCOCCOCCNC(=O)[C@H](CNC(=O)CCP(=O)(O)O)N3C(=O)C=CC3=O)C(C)C)cc2)C(=O)OCc2c1cc1n(c2=O)Cc2c-1nc1cc(F)c(C)c3c1c2[C@@H](NC(C)=O)CC3 [Example 10] | 61 | 28 |  |  |
| CC[C@@]1(OC(=O)OCc2ccc(NC(=O)[C@H](CCCNC(N)=O)NC(=O)[C@@H](NC(=O)[C@H](CC(=O)N[C@H]3CCOC3=O)NC(=O)CCOCCOCCOCCOCCNC(=O)[C@H](CNC(=O)CCP(=O)(O)O)N3C(=O)C=CC3=O)C(C)C)cc2)C(=O)OCc2c1cc1n(c2=O)Cc2c-1nc1cc(F)c(C)c3c1c2[C@@H](NC(=O)CO)CC3 [Example 11] | 64 | 30 |  |  |
| CC[C@@]1(O)C(=O)OCc2c1cc1n(c2=O)Cc2c-1nc1cc(F)c(C)c3c1c2[C@@H](NC(=O)COP(=O)(O)OCc1ccc(NC(=O)[C@H](CCCNC(N)=O)NC(=O)[C@@H](NC(=O)[C@H](CC(=O)N[C@H]2CCOC2=O)NC(=O)CCOCCOCCOCCOCCNC(=O)[C@H](CNC(=O)CCP(=O)(O)O)N2C(=O)C=CC2=O)C(C)C)cc1)CC3 [Example 12] | 3.5 | 106 |  |  |
| CC[C@H](C)[C@@H]([C@@H](CC(=O)N1CCC[C@H]1[C@H](OC)[C@@H](C)C(=O)N[C@H](C)[C@@H](O)c1ccccc1)OC)N(C)C(=O)[C@@H](NC(=O)[C@H](C(C)C)N(C)Cc1cc(N)ccc1F)C(C)C [Example U-008] |  |  | ≤ 3 |  |
| CC[C@H](C)[C@@H]([C@@H](CC(=O)N1CCC[C@H]1[C@H](OC)[C@@H](C)C(=O)N[C@H](C)[C@@H](O)c1ccccc1)OC)N(C)C(=O)[C@@H](NC(=O)[C@H](C(C)C)N(C)C(=O)CNC(=O)CN)C(C)C [Example U-009] (H-GG[NMeV]V[Dil][Dolaproine]-X1) |  |  | ≤ 3 |  |
| CC[C@H](C)[C@@H]([C@@H](CC(=O)N1CCC[C@H]1[C@H](OC)[C@@H](C)C(=O)N[C@H](C)[C@@H](O)c1ccccc1)OC)N(C)C(=O)[C@@H](NC(=O)[C@H](C(C)C)N(C)C)C(C)C [Example U-010] |  |  |  | ≤ 3 |
| CC[C@H](C)[C@@H]([C@@H](CC(=O)N1CCC[C@H]1[C@H](OC)[C@@H](C)C(=O)N[C@H](C)[C@@H](OC(=O)NCCOCCOCCOCCOCCOCCOCCOCCOC)c1ccccc1)OC)N(C)C(=O)[C@@H](NC(=O)[C@@H](NC)C(C)C)C(C)C [Example U-011] (H-[NMeV]V[Dil][Dolaproine][X5]-{NH(CH2CH2O)8Me}) |  |  | ≤ 3 |  |

From patent US20250170267A1, “ANTIBODY-DRUG CONJUGATE PRECURSOR AND INTERMEDIATE FOR SYNTHESIS THEREOF” (UBE Corporation, priority 2022, published 2025)
